Measurements: patent US20140087995A1 (published 2014)
Numbered stars: 1 amine (or outer) side, 2 acyl side, 3 side chain; on linkers, the order of the positions; unused ones are H or OH. Bridge positions count the residues as written; N and C are the ends. Side chains are listed from the residue outwards. Ends that are not written are not given here. * marks the point of attachment. C20 diacid = O=C(O)CCCCCCCCCCCCCCCCCCC(=O)*; γGlu = O=C(O)[C@H](CCC(=O)[*:2])N[*:1]; AEEA = NCCOCCOCC(=O)O

T1: rat calcitonin receptor (rat, UniProt P32214 25-516)
T1 construct: whole, on cells; Membranes prepared from transiently transfected BHK tk'ts 13 cells (Assay VIII); also called rCTR; rCT
T1 sequence (looked up): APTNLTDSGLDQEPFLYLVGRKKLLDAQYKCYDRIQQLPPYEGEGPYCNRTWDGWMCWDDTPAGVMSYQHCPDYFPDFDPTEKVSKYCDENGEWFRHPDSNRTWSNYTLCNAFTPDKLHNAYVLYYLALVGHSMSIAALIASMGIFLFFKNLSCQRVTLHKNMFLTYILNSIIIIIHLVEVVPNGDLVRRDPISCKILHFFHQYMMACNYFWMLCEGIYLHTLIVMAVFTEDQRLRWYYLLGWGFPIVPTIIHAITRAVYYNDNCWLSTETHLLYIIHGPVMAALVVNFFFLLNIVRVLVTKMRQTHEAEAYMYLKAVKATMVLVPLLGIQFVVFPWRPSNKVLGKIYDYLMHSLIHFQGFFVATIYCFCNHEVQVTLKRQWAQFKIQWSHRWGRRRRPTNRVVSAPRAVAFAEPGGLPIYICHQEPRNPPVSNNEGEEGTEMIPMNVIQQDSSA

T2: human calcitonin receptor (human, UniProt P30988 25-474)
T2 construct: whole, on cells; Membranes prepared from a stably transfected BHK cell line (Assay VII); also called hCTR; hCT
T2 sequence (looked up): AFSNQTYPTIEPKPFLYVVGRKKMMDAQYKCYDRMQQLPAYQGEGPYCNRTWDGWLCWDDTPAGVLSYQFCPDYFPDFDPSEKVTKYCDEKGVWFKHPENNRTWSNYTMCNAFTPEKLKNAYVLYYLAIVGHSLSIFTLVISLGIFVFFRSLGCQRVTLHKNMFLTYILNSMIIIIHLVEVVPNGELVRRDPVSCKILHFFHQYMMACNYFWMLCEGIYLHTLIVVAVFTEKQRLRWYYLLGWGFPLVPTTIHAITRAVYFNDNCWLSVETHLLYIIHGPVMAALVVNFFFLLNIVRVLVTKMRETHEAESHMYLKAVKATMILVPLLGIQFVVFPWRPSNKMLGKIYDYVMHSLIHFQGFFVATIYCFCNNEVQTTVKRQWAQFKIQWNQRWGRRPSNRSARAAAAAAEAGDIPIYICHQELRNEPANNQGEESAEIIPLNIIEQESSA

T3: rat amylin receptor (rat calcitonin receptor + rat RAMP 3) (rat, UniProt P32214 25-516; Q9JJ73 23-147)
T3 construct: whole, on cells; Membranes prepared from transiently transfected BHK tk'ts 13 cells (Assay VI); also called rAmylin-R; rAmylin
T3 sequence (looked up) 1: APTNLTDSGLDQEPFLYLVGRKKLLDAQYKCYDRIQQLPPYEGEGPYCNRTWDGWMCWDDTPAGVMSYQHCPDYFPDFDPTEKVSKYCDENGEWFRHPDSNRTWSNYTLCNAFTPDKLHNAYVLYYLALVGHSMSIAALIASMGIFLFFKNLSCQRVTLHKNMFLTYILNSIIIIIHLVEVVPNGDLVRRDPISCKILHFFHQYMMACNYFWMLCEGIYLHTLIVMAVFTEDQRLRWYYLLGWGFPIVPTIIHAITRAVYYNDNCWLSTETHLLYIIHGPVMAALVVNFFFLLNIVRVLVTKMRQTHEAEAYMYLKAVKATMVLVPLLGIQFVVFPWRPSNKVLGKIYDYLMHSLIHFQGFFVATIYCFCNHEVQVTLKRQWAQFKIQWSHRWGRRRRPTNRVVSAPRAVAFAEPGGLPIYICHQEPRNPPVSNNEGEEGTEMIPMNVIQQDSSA
T3 sequence (looked up) 2: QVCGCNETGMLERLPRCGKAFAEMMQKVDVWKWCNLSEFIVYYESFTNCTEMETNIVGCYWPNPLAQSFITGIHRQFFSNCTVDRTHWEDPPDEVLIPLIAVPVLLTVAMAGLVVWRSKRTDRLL


Assays:
[1] = molecular target: T1, rat calcitonin receptor; test: ratio of binding IC50s: rat calcitonin receptor / rat amylin receptor (reference)
[2] = molecular target: T2, human calcitonin receptor; test: ratio of binding IC50s: human calcitonin receptor / human amylin receptor (reference)
Procedure, shortened: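 IC₅₀ values were derived by one-site competition analysis of SPA counts. Cell membranes (35 ng/μL) with SPA beads were incubated with test compounds for 120 min at 25° C in Hepes buffer, pH 7.4, containing CaCl2, MgCl₂, OA and Tween20.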

[3] = molecular target: T1, rat calcitonin receptor; test: SPA competition vs 125I-calcitonin, membranes of BHK cells with rat calcitonin receptor (Assay VIII)
[4] = molecular target: T3, rat amylin receptor (rat calcitonin …); test: SPA competition vs 125I-rat amylin, membranes of BHK cells with rat calcitonin receptor + rat RAMP3 (Assay VI)

Binder | Ratio rCT/rAmylin binding [1] | Ratio hCT/hAmylin binding [2] | IC50 [3] [nM] | IC50 [4] [nM]
K([AEEA-γGlu-C20 diacid])CNTATCATQRLANFLRHSSPNFGAIPSPTNVGPNTY-NH2 (disulfide 2-7; N-terminus assumed; SMILES CC[C@H](C)[C@H](NC(=O)[C@H](C)NC(=O)CNC(=O)[C@H](Cc1ccccc1)NC(=O)[C@H](CC(N)=O)NC(=O)[C@@H]1CCCN1C(=O)[C@H](CO)NC(=O)[C@H](CO)NC(=O)[C@H](Cc1c[nH]cn1)NC(=O)[C@H](CCCNC(=N)N)NC(=O)[C@H](CC(C)C)NC(=O)[C@H](Cc1ccccc1)NC(=O)[C@H](CC(N)=O)NC(=O)[C@H](C)NC(=O)[C@H](CC(C)C)NC(=O)[C@H](CCCNC(=N)N)NC(=O)[C@H](CCC(N)=O)NC(=O)[C@@H](NC(=O)[C@H](C)NC(=O)[C@@H]1CSSC[C@H](NC(=O)[C@@H](N)CCCCNC(=O)COCCOCCNC(=O)CC[C@H](NC(=O)CCCCCCCCCCCCCCCCCCC(=O)O)C(=O)O)C(=O)N[C@@H](CC(N)=O)C(=O)N[C@@H]([C@@H](C)O)C(=O)N[C@@H](C)C(=O)N[C@@H]([C@@H](C)O)C(=O)N1)[C@@H](C)O)C(=O)N1CCC[C@H]1C(=O)N[C@@H](CO)C(=O)N1CCC[C@H]1C(=O)N[C@H](C(=O)N[C@@H](CC(N)=O)C(=O)N[C@H](C(=O)NCC(=O)N1CCC[C@H]1C(=O)N[C@@H](CC(N)=O)C(=O)N[C@H](C(=O)N[C@@H](Cc1ccc(O)cc1)C(N)=O)[C@@H](C)O)C(C)C)[C@@H](C)O, Analogue of human amylin; also called compound 56) | 131 | 42.6 | 5.26 | 0.04
K([AEEA-γGlu-C20 diacid])CNTATCATQRLANFLRHSSPNFGAIPSSTPVGSHTY-NH2 (disulfide 2-7; N-terminus assumed; SMILES CC[C@H](C)[C@H](NC(=O)[C@H](C)NC(=O)CNC(=O)[C@H](Cc1ccccc1)NC(=O)[C@H](CC(N)=O)NC(=O)[C@@H]1CCCN1C(=O)[C@H](CO)NC(=O)[C@H](CO)NC(=O)[C@H](Cc1c[nH]cn1)NC(=O)[C@H](CCCNC(=N)N)NC(=O)[C@H](CC(C)C)NC(=O)[C@H](Cc1ccccc1)NC(=O)[C@H](CC(N)=O)NC(=O)[C@H](C)NC(=O)[C@H](CC(C)C)NC(=O)[C@H](CCCNC(=N)N)NC(=O)[C@H](CCC(N)=O)NC(=O)[C@@H](NC(=O)[C@H](C)NC(=O)[C@@H]1CSSC[C@H](NC(=O)[C@@H](N)CCCCNC(=O)COCCOCCNC(=O)CC[C@H](NC(=O)CCCCCCCCCCCCCCCCCCC(=O)O)C(=O)O)C(=O)N[C@@H](CC(N)=O)C(=O)N[C@@H]([C@@H](C)O)C(=O)N[C@@H](C)C(=O)N[C@@H]([C@@H](C)O)C(=O)N1)[C@@H](C)O)C(=O)N1CCC[C@H]1C(=O)N[C@@H](CO)C(=O)N[C@@H](CO)C(=O)N[C@H](C(=O)N1CCC[C@H]1C(=O)N[C@H](C(=O)NCC(=O)N[C@@H](CO)C(=O)N[C@@H](Cc1c[nH]cn1)C(=O)N[C@H](C(=O)N[C@@H](Cc1ccc(O)cc1)C(N)=O)[C@@H](C)O)C(C)C)[C@@H](C)O, Analogue of human amylin; also called compound 57) | 135 | 133 | 24.4 | 0.181

The next lines start with the values.

Ratio rCT/rAmylin binding [1] | Ratio hCT/hAmylin binding [2] | IC50 [3] [nM] | IC50 [4] [nM] | Binder
162 | 32 | 44.8 | 0.276 | K([AEEA-γGlu-C20 diacid])CNTATCATQRLAGFLRHSSPNFGAIPSSTPVGSNTY-NH2 (disulfide 2-7; N-terminus assumed; SMILES CC[C@H](C)[C@H](NC(=O)[C@H](C)NC(=O)CNC(=O)[C@H](Cc1ccccc1)NC(=O)[C@H](CC(N)=O)NC(=O)[C@@H]1CCCN1C(=O)[C@H](CO)NC(=O)[C@H](CO)NC(=O)[C@H](Cc1c[nH]cn1)NC(=O)[C@H](CCCNC(=N)N)NC(=O)[C@H](CC(C)C)NC(=O)[C@H](Cc1ccccc1)NC(=O)CNC(=O)[C@H](C)NC(=O)[C@H](CC(C)C)NC(=O)[C@H](CCCNC(=N)N)NC(=O)[C@H](CCC(N)=O)NC(=O)[C@@H](NC(=O)[C@H](C)NC(=O)[C@@H]1CSSC[C@H](NC(=O)[C@@H](N)CCCCNC(=O)COCCOCCNC(=O)CC[C@H](NC(=O)CCCCCCCCCCCCCCCCCCC(=O)O)C(=O)O)C(=O)N[C@@H](CC(N)=O)C(=O)N[C@@H]([C@@H](C)O)C(=O)N[C@@H](C)C(=O)N[C@@H]([C@@H](C)O)C(=O)N1)[C@@H](C)O)C(=O)N1CCC[C@H]1C(=O)N[C@@H](CO)C(=O)N[C@@H](CO)C(=O)N[C@H](C(=O)N1CCC[C@H]1C(=O)N[C@H](C(=O)NCC(=O)N[C@@H](CO)C(=O)N[C@@H](CC(N)=O)C(=O)N[C@H](C(=O)N[C@@H](Cc1ccc(O)cc1)C(N)=O)[C@@H](C)O)C(C)C)[C@@H](C)O, Analogue of human amylin; also called compound 71)
76.6 | 109 | 10.3 | 0.135 | K([AEEA-γGlu-C20 diacid])CNTATCATQRLANFLRHSSPNFGAIPSSTNVGPHTY-NH2 (disulfide 2-7; N-terminus assumed; SMILES CC[C@H](C)[C@H](NC(=O)[C@H](C)NC(=O)CNC(=O)[C@H](Cc1ccccc1)NC(=O)[C@H](CC(N)=O)NC(=O)[C@@H]1CCCN1C(=O)[C@H](CO)NC(=O)[C@H](CO)NC(=O)[C@H](Cc1c[nH]cn1)NC(=O)[C@H](CCCNC(=N)N)NC(=O)[C@H](CC(C)C)NC(=O)[C@H](Cc1ccccc1)NC(=O)[C@H](CC(N)=O)NC(=O)[C@H](C)NC(=O)[C@H](CC(C)C)NC(=O)[C@H](CCCNC(=N)N)NC(=O)[C@H](CCC(N)=O)NC(=O)[C@@H](NC(=O)[C@H](C)NC(=O)[C@@H]1CSSC[C@H](NC(=O)[C@@H](N)CCCCNC(=O)COCCOCCNC(=O)CC[C@H](NC(=O)CCCCCCCCCCCCCCCCCCC(=O)O)C(=O)O)C(=O)N[C@@H](CC(N)=O)C(=O)N[C@@H]([C@@H](C)O)C(=O)N[C@@H](C)C(=O)N[C@@H]([C@@H](C)O)C(=O)N1)[C@@H](C)O)C(=O)N1CCC[C@H]1C(=O)N[C@@H](CO)C(=O)N[C@@H](CO)C(=O)N[C@H](C(=O)N[C@@H](CC(N)=O)C(=O)N[C@H](C(=O)NCC(=O)N1CCC[C@H]1C(=O)N[C@@H](Cc1c[nH]cn1)C(=O)N[C@H](C(=O)N[C@@H](Cc1ccc(O)cc1)C(N)=O)[C@@H](C)O)C(C)C)[C@@H](C)O, Analogue of human amylin; also called compound 58)
